{
  "source": "patent US20040002075A1",
  "about": "“Heat-resistant cysteine synthase” (priority 2001, published 2004)",
  "molecules": {"B1": {"name": "cysteine synthase: Heat-resistant cysteine synthase (O-acetylserine sulfhydrylase) of hyperthermophilic archaea Aeropyrum pernix K1, SEQ ID NO: 2, produced recombinantly in E. coli (protein)", "chain": "VALADISGYLDVLDSVRGFSYLENAREVLRSGEARCLGNPRSEPEYVKALYVIGASRIPVGDGCSHTLEELGVFDISVPGEMVFPSPLDFFERGKPTPLVRSRLQLPNGVRVWLKLEWYNPFSLSVKDRPAVEIISRLSRRVEKGSLVADATSSNFGVALSAVARLYGYRARVYLPGAAEEFGKLLPRLLGAQVIVDPEAPSTVHLLPRVMKDSKNEGFVHVNQFYNDANFEAHMRGTAREIFVQSRRGGLALRGVAGSLGTSGHMSAAAFYLQSVDPSIRAVLVQPAQGDSIPGIRRVETGMLWINMLDISYTLAEVTLEEAMEAVVEVARSDGLVIGPSGGAAVKALAKKAAEGDLEPGDYVVVVPDTGFKYLSLVQNALEGAGDSV", "modifications": "Aeropyrum pernix K1"}},
  "key": {"[1]": {"experiment": "Heat resistance, residual activity after incubation, assaying method (1)", "assay_type": "physicochemical", "settings": "for residual activity: 0.3 mg/mL enzyme in 50 mM potassium phosphate buffer (pH 6.7), FIG. 3", "method": "The optimal pH was determined by the following assaying method (1) for cysteine synthase activity. Assaying Method of Cysteine Synthase Activity (1) Four enzyme solution samples were prepared by adding cysteine synthase to 50 mM potassium phosphate buffer (pH 6.7) containing 1 mM EDTA and 0.2 mM pyridoxal 5′-phosphate so as to obtain an enzyme concentration of 0.3 mg/mL. The samples were incubated for 6 hours at 4° C., 80° C., and 100° C., respectively, to assay residual activity."}, "[2]": {"experiment": "Optimal temperature, cysteine synthase activity assaying method (2)", "assay_type": "biochemical", "settings": "4 minutes reaction, FIG. 2", "method": "The optimal temperature was determined by the following assaying method (2) for cysteine synthase activity. Assaying Method of Cysteine Synthase Activity (2) Purified enzyme was added to 50 mM potassium phosphate buffer (pH 7.5 or 7.0) containing 20 mM O-acetylserine and 2 mM sodium sulfide as substrates, and 0.2 mM pyridoxal 5′-phosphate so as to establish an enzyme concentration of 0.8 μg/mL, the reaction was brought about for 4 minutes, and the amount of cysteine synthesized was determined by the ninhydrin method to assay the enzyme activity."}},
  "data": [
    {"molecule": "B1", "values": [
      {"measurement": "residual activity", "setting": "[1]; after 6 hours of incubation at 80° C.", "value": "about 97%"},
      {"measurement": "residual activity", "setting": "[1]; after 6 hours of incubation at 100° C.", "value": "about 85%"},
      {"measurement": "activity of the enzyme after heat-treatment", "setting": "[1]; heat-treatment at 80° C. for 6 hours", "value": "substantially unimpaired"},
      {"measurement": "optimal temperature", "setting": "[2]; 50 mM potassium phosphate buffer pH 7.0", "value": "about 60 °C"},
      {"measurement": "optimal temperature", "setting": "[2]; 50 mM potassium phosphate buffer pH 7.5", "value": "about 50 °C"}
    ]}
  ]
}
